# Data reported in patent US20230073947A1, “A METHOD FOR PREPARING BOVINE MYOGLOBIN USING ESCHERICHIA COLI” (iNtRON Biotechnology, Inc., priority 2020, published 2023).
# Tested on: iron-deficiency-anemia-induced animals
# Assay type: in vivo, Sprague-Dawley rats
# Method: The composition containing bovine myoglobin prepared according to the present invention was administered to iron-deficiency-anemia-induced animals, whereby the effectiveness of the composition containing bovine myoglobin on alleviating anemia was evaluated. Specifically, after 2 weeks acclimation period, thirty 9-week old Sprague-Dawley rats (female) were divided into 3 groups of 10 rats per group, among which one group was fed with normal feed in an amount of 10% of body weight daily for one month (Group 1; control), and the remaining two groups were fed with iron-deficient feed in an amount of 10% of body weight daily for 6 weeks to induce iron-deficiency anemia (Group 2 and Group 3). After 6 weeks of feeding, it was confirmed that iron-deficiency anemia was induced in the individual rat belonging to Group 2 and Group 3. Then, one of the anemia-induced groups was orally administered once a day with saline alone (Group 2), and the other anemia-induced group was orally administered once a day with solution containing bovine myoglobin (0.1 mg Fe/500 μ1 solution, Group 3). The administration continued for 5 weeks. During 5 weeks of administration to Group 2 and Group 3, Group 1 was continuously fed with normal feed, and Group 2 and Group 3 were fed with iron-deficient feed. […] After 5 weeks of administration, blood was collected, and whether anemia was alleviated was evaluated.
# [1] = female Sprague-Dawley rats, iron-deficient feed, oral once a day 0.1 mg Fe/500 μl solution for 5 weeks
molecule,measurement,setting,value
"bovine myoglobin (protein, heme cofactor; Bovine myoglobin) MGLSDGEWQLVLNAWGKVEADVAGHGQEVLIRLFTGHPETLEKFDKFKHLKTEAEMKASEDLKKHGNTVLTALGGILKKKGHHEAEVKHLAESHANKHKIPVKYLEFISDAIIHVLHAKHPSDFGADAQAAMSKALELFRNDMAAQYKVLGFHG",Effectiveness at alleviating iron-deficiency anemia,conclusion from blood analysis after 5 weeks of administration,effective at alleviating iron-deficiency anemia
same,Blood test Hematocrit,[1],35.8 ± 1.9%
same,Blood test Hemoglobin content,[1],14.0 ± 0.7 g/dL
same,Weight of rats on 5 weeks after administration,[1],318.9 ± 1.1 g
same,Occurrence of abnormal symptoms during the administration period,"rat, in vivo, po",no abnormal symptoms
